From article PMC2584968

Target: three-disulphide variant of core gp120 (HXBc2) (HIV-1 (HXBc2))
Assay: SPR

In the case of CD4-induced antibody 17b, the fold increase in on-rate (through stabilization) is reported as 95 fold.
